# Data as given in patent publication US8709811B2, “Materials and methods for synthesis of a flavor and aroma volatile in plants” (University of Florida Research Foundation, Inc., priority 2003, dated 2014).
# “Also recorded” adds a separate entry of the source.
# B1: petunia homolog of the tomato phenylethanol dehydrogenase: petunia 2-phenylethanol dehydrogenase, SEQ ID NO: 11, encoded by SEQ ID NO: 10 (protein, listed as Lycopersicon esculentum)
# chain: MSSVAATKTVCVTGASGYIASWLVNFLLQRGYTVKASVRDPNDPKKTQHLISLGGAKERLHLFKANLLEEGSFDAVVDGCEGVFHTASPFYYSVTDPQAELLDPAVKGTLNLLGSCAKAPSVKRVVLTSSIAAVAYSGEPRTPEVVVDESWWTSPDYCREKQLWYVLSKTLAEDAAWKFVKEKGIDMVAINPAMVIGPLLQPTLNTSSAAVLNLVNGAETYPNATFGWVNVKDVANAHILAFENPSANGRYLMVERVAHYSDILKILRELYPTMRLPEKCADDNPLMQNYQVSKERAKSLGVEFTPLEESIKETVESLKEKKFFGGSSAM
# B2: cLEC73K23: tomato phenylalanine decarboxylase cLEC73K23, SEQ ID NO: 7, encoded by SEQ ID NO: 6 (protein, listed as Lycopersicon esculentum)
# chain: MGSLSLEMDFEPSPMTPRSLAAMTPRSLARRRLFPNVDNKKQKMAQPGAGPRKNLELEVMEPALKNDGPSLDTILVNYLDTLTQRVNYHLGYPVNICYDHYATLAPLLQFHLNNCGDPFLQNTVDFHSKDFEVAVLNWFAKLWEIEKDQYWGYVTNGGTEGNLHGILLGRELLPEGILYASKDSHYSVFKAARMYRMDSETINTSVNGEMDYSDLRAKLLQNKDKPAIINVTIGTTFKGAIDDLDVILEILKECGYSQDRFYIHCDAALCGLMTPFINNMISFKKPIGSVTISGHKFLGCPMPCGVQITRKSYINNLSTNVEYIASVDATISGSRNGLTPIFLWYSLSAKGQVGLQKDVKRCLDNAKYLKDRLQQAGISVMLNELSIIVVLERPRDHEFVRRWQLSCVKDMAHVIVMPGITREMLDNFMSELVQQRKVWYQNGKTDPPCVGEDIGAQNCACSYHKIDYICP
# B3: cLEC75E21: tomato phenylalanine decarboxylase cLEC75E21, SEQ ID NO: 5, encoded by SEQ ID NO: 4 (protein, listed as Lycopersicon esculentum)
# chain: MGSLSFEKDFEPSAITPRGLAPPGLIVNGDFGEMMRLKVSSTPTTPRKNLNLSVTEPGKNDGPSLDCTLMNYIDTLTQRINYHIGYPVNICYEHYANLAPLLQFHLNNCGDPFLQNTVDFHSKDFEVAVLNWFADLWEIERDQYWGYVTNGGTEGNLHGILVGRELFPDGILYASKDSHYSVAKAAMMYRMDFENINASINGEIDYSDLKVKLLQNKGKPAIINVTIGTTFKGAVDDLDVILQILEECGYTRDQFYIHCDAALNGLIIPFIKNMITFKKPIGSVTISGHKFLGCPMPCGVQITRKSYINNLSRRVEYIASVDATISGSRNGLTPIFLWYSISAKGQIGFQKDVKRCFDNAKYLKDRLQQAGISVMLNELSIIVVLERPRDHEFVRRWQLSCVRDMAHVIVMPGITRETLDGFINDLLQQRKKWYQDGRISPPCVANDIGAQNCACSYHKIDYIIA
# Experiments:
# [1] = In vitro phenylethanol dehydrogenase activity of E. coli expressed petunia homolog; format: biochemical; conditions: E. coli expressed protein
# Description: FIGS. 14A-14B show the nucleotide (SEQ ID NO: 10) and amino acid sequence (SEQ ID NO: 11) of a petunia homolog of the tomato phenylethanol dehydrogenase.
# phenylalanine = assay: Phenylalanine decarboxylase expression in E. coli: phenethylamine production in media containing phenylalanine, GC; format: cell-based; conditions: grown in the presence of phenylalanine, confirmed by GC-MS
# Description: The full-length aromatic amino acid decarboxylase cDNAs were cloned by sequencing putative clones from the TIGR database. Following sequence analysis the full-length coding sequence was obtained by PCR, and cloned into vector pENTR/D-TOPO. The coding region was then cloned into vector pDEST15 containing a GST tag (Invitrogen) by recombination, and transformed into E. coli strain […] (Invitrogen) for inducible protein expression. Production of the recombinant protein was confirmed by protein blotting with anti-GST antibodies. Enzyme activity was determined by growing E. coli strains expressing the aromatic amino acid decarboxylases in media containing 19.4 mM phenylalanine. Volatile compounds were extracted from the cultures using an equal volume of hexanes. Extracts were concentrated and analyzed by gas chromatography on an Agilent DB-5 column on an Agilent 6890N gas chromatograph. Identification of phenethylamine was confirmed by GC-mass spectrometry as described by Schmelz et al. (2001).
# The coding regions of the full-length aromatic amino acid decarboxylases were cloned in vector pDEST15 with a GST tag and transformed into E. coli BL21-SI cells for inducible expression. The production of recombinant proteins in E. coli was confirmed by Western blotting with an anti-GST antibody. […] Volatile compounds were extracted from these cultures and analyzed by gas chromatography. […]
Molecule,Phenylethanol dehydrogenase activity in vitro [1],Production of phenethylamine by E. coli cultures expressing the decarboxylase (phenylalanine)
B1,exhibits phenylethanol dehydrogenase activity,–
B2,–,produced a compound with the same retention time as phenethylamine; also recorded: produce phenethylamine
B3,–,produced a compound with the same retention time as phenethylamine; also recorded: produce phenethylamine
